Values of other authors as cited in patent publication US20070166367A1, “Adept or gdept producing acetaldehyde” (priority 2004, published 2007).
Like-named read-outs stand apart in the source and are kept apart here.

B1: Human class IV: human class IV alcohol dehydrogenase (protein, UniProt P40394 1-386, looked up)
All-trans-retinol …: MFAEIQIQDKDRMGTAGKVIKCKAAVLWEQKQPFSIEEIEVAPPKTKEVRIKILATGICRTDDHVIKGTMVSKFPVIVGHEATGIVESIGEGVTTVKPGDKVIPLFLPQCRECNACRNPDGNLCIRSDITGRGVLADGTTRFTCKGKPVHHFMNTSTFTEYTVVDESSVAKIDDAAPPEKVCLIGCGFSTGYGAAVKTGKVKPGSTCVVFGLGGVGLSVIMGCKSAGASRIIGIDLNKDKFEKAMAVGATECISPKDSTKPISEVLSEMTGNNVGYTFEVIGHLETMIDALASCHMNYGTSVVVGVPPSAKMLTYDPMLLFTGRTWKGCVFGGLKSRDDVPKLVTEFLAKKFDLDQLITHVLPFKKISEGFELLNSGQSIRTVLTF
B2: Human B2: human alcohol dehydrogenase β2, atypical liver class I enzyme, B2B2 homodimer (protein, UniProt P00325 2-375, looked up)
All-trans-retinol …: STAGKVIKCKAAVLWEVKKPFSIEDVEVAPPKAYEVRIKMVAVGICHTDDHVVSGNLVTPLPVILGHEAAGIVESVGEGVTTVKPGDKVIPLFTPQCGKCRVCKNPESNYCLKNDLGNPRGTLQDGTRRFTCRGKPIHHFLGTSTFSQYTVVDENAVAKIDAASPLEKVCLIGCGFSTGYGSAVNVAKVTPGSTCAVFGLGGVGLSAVMGCKAAGAARIIAVDINKDKFAKAKELGATECINPQDYKKPIQEVLKEMTDGGVDFSFEVIGRLDTMMASLLCCHEACGTSVIVGVPPASQNLSINPMLLLTGRTWKGAVYGGFKSKEGIPKLVADFMAKKFSLDALITHVLPFEKINEGFDLLHSGKSIRTVLTF
modifications: beta2 allele homodimer
B3: Human B1: usual human alcohol dehydrogenase B1 isoenzyme (protein, UniProt P00325 2-375, looked up)
All-trans-retinol …: B2 All-trans-retinol …

Molecule | Km (for ethanol) | enzymatic rate relative to the usual human ADH enzymes ('physiological' ethanol concentrations) | Vmax relative to the usual human alpha, beta and gamma variants (pH 7.5) | Km
B1 | 37000 µM |  |  | 
B2 | 940 µM | at least 16 fold | (Note at pH 7.5 the Vmax of beta 2 is 5-40 times higher that the usual human alpha, beta and gamma variants) | 
B3 |  |  |  | 49 µM
